{"source": "paper PMC7369975", "about": "“Scalable High-Performance Production of Recombinant Horseradish Peroxidase from E. coli Inclusion Bodies” (International Journal of Molecular Sciences, 2020)", "type_in_all_cases": "biochemical, Armoracia rusticana", "key": {"[1]": {"system": "T1, pHRP (commercial plant HRP Type VI-A)", "T1 construct": "gene PRXC1A; native glycosylated enzyme from horseradish root, commercial preparation, variable isoenzyme mixture, 44 kDa", "assay": "absorbance at […] nm, initial rate, 96-well plate", "settings": "1 mM H2O2 (saturating), 50 mM phosphate-citrate, pH 5, 30 °C; ABTS 0.1-7 mM"}, "[2]": {"system": "T1, pHRP (commercial plant HRP Type VI-A)", "assay": "absorbance at […] nm, initial rate, 96-well plate", "settings": "1 mM H2O2 (saturating), 50 mM phosphate-citrate, pH 5; TMB 0.02-0.55 mM"}, "purified protein": {"substrate": "Cc1cc(-c2cc(C)c(N)c(C)c2)cc(C)c1N", "assay": "purified protein", "settings": "1 mM H2O2 (saturating), 50 mM phosphate-citrate, pH 5, TMB 0.02-0.55 mM"}}, "data": [{"molecule": "CCn1c(=NN=c2sc3cc(S(=O)(=O)O)ccc3n2CC)sc2cc(S(=O)(=O)O)ccc21", "note": "[ABTS, 2,2′-azino-bis (3-ethylbenzothiazoline-6-sulphonic acid)]", "values": [{"measurement": "Km", "setting": "[1]", "value": "700 ± 140", "unit": "µM"}]}, {"molecule": "Cc1cc(-c2cc(C)c(N)c(C)c2)cc(C)c1N", "note": "[TMB, 3,3′,5,5′-tetramethylbenzidine]", "values": [{"measurement": "Km", "setting": "[2]", "value": "101 ± 20", "unit": "µM"}]}, {"molecule": "rHRP (refolded recombinant HRP, variant C1A) (Armoracia rusticana) (protein) QLTPTFYDNSCPNVSNIVRDTIVNELRSDPRIAASILRLHFHDCFVNGCDASILLDNTTSFRTEKDAFGNANSARGFPVIDRMKAAVESACPRTVSCADLLTIAAQQSVTLAGGPSWRVPLGRRDSLQAFLDLANANLPAPFFTLPQLKDSFRNVGLNRSSDLVALSGGHTFGKNQCRFIMDRLYNFSNTGLPDPTLNTTYLQTLRGLCPLNGNLSALVDFDLRTPTIFDNKYYVNLEEQKGLIQSDQELFSSPNATDTIPLVRSFANSTQTFFNAFVEAMDRMGNITPLTGTQGQIRLNCRVVNSNS", "values": [{"measurement": "Km", "setting": "purified protein", "value": "105 ± 14", "unit": "µM"}, {"measurement": "Vmax", "setting": "purified protein", "value": 7150, "unit": "µmol/min/mg"}, {"measurement": "kcat", "setting": "purified protein", "value": "4170 ± 207", "unit": "s⁻¹"}, {"measurement": "kcat/Km", "setting": "purified protein", "value": "3.96e+07 ± 5.66e+06", "unit": "M⁻¹ s⁻¹"}]}]}
